US12091446

Experiments:
[1] = target: SARS-COV-2 RBD Beta variant (SARS-CoV-2)
[2] = target: SARS-COV-2 RBD Gamma variant (SARS-CoV-2)
[3] = target: SARS-COV-2 RBD Mu variant (SARS-CoV-2)
[4] = target: SARS-COV-2 RBD Lambda variant (SARS-CoV-2)

Chain of huACE2-Fc (Q9BYF1 18-740): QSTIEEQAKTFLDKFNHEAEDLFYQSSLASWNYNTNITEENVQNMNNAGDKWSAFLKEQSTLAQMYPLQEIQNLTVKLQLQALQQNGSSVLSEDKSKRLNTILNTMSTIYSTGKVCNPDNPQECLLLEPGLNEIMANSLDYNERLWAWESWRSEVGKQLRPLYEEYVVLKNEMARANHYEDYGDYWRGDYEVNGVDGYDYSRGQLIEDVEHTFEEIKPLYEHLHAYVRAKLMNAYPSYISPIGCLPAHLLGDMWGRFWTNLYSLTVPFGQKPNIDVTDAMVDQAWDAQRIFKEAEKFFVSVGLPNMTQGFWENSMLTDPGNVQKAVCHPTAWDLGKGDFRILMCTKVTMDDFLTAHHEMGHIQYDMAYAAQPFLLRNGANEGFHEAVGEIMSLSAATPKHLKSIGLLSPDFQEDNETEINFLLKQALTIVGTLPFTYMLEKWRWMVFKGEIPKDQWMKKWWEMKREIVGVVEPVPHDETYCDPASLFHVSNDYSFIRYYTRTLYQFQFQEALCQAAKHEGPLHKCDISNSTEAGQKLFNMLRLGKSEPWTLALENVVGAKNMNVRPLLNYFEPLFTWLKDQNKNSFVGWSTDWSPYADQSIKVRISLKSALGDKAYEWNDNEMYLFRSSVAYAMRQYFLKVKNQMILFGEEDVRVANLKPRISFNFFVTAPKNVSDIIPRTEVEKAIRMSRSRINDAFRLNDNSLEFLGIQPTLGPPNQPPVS

Work on “huACE2-Fc (from UniProt Q9BYF1) (Fc fusion)” yielded a Kd [1] of 44.4 nM, a Kd [2] of 3.6 nM and a Kd [3] of 12.9 nM. For the same substance, the Kd [4] was 5.34 nM.
